PMC5824745 (The Journal of Neuroscience, 2018)

What was measured:
[1] = molecular target: T1, eukaryotic Initiation Factor 4E (eIF4E), wild type (mouse (endogenous in forebrain), UniProt P63073 1-217); experiment: pull-down; cap-column pulldown: 500 ug forebrain lysate protein with 50 ul m7GDP agarose in buffer C (50 mM MOPS-KOH pH 7.4, 100 mM NaCl, 50 mM NaF, 0.5 mM EDTA, 0.5 mM EGTA, 0.1 mM GTP), 90 min at 4 C; eIF4E held by its ligand m7GDP; cap-bound fraction immunoblotted and quantified, normalised to input; conditions: partners not purified
T1 construct: also called WT; source: endogenous, WT mouse forebrain lysate

[2] = molecular target: T2, eIF4E Ser209Ala (knock-in, 4Eki mice) (mouse (endogenous in forebrain), UniProt P63073 1-217, Ser209Ala); experiment: as above; conditions: partners not purified
T2 construct: The mice are described in Gkogkas et al., 2014; also called Ser209Ala mutant; source: endogenous (knock-in allele), 4Eki mouse forebrain lysate

Gapdh, sequence (P16858 whole entry): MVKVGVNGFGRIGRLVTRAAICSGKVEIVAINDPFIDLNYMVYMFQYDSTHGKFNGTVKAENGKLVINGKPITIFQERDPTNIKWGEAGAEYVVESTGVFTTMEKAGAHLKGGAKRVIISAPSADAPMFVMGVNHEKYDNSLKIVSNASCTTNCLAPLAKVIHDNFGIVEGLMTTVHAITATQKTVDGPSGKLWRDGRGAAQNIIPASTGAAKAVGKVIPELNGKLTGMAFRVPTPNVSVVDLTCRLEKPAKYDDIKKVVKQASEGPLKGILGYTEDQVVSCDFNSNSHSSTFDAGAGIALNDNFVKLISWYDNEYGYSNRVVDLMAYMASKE

Row | Binder | cap-bound protein (arbitrary units, normalised to input) [1] | cap-bound protein (arbitrary units, normalised to input) [2]
1 | Eprs (natural protein, mouse (endogenous in forebrain), UniProt Q8CGC7 1-1512, looked up, Eprs (glutamyl-prolyl-tRNA synthetase), mouse, endogenous in forebrain; also called GAIT complex protein; source: endogenous, mouse forebrain lysate (WT or 4Eki)) MAALCLTVNAGNPPLEALLAVEHVKGDVSISVEEGKENLLRVSETVAFTDVNSILRYLARIATTSGLYGTNLMEHTEIDHWLEFSATKLSSCDRLTSAINELNHCLSLRTYLVGNSLTLADLCVWATLKGSAAWQEHLKQNKTLVHVKRWFGFLEAQQAFRSVGTKWDVSGNRATVAPDKKQDVGKFVELPGAEMGKVTVRFPPEASGYLHIGHAKAALLNQHYQVNFKGKLIMRFDDTNPEKEKEDFEKVILEDVAMLHIKPDQFTYTSDHFETIMKYAEKLIQEGKAYVDDTPAEQMKAEREQRTESKHRKNSVEKNLQMWEEMKKGSQFGQSCCLRAKIDMSSNNGCMRDPTLYRCKIQPHPRTGNKYNVYPTYDFACPIVDSIEGVTHALRTTEYHDRDEQFYWIIEALGIRKPYIWEYSRLNLNNTVLSKRKLTWFVNEGLVDGWDDPRFPTVRGVLRRGMTVEGLKQFIAAQGSSRSVVNMEWDKIWAFNKKVIDPVAPRYVALLKKEVVPVNVLDAQEEMKEVARHPKNPDVGLKPVWYSPKVFIEGADAETFSEGEMVTFINWGNINITKIHKNADGKITSLDAKLNLENKDYKKTTKITWLAESTHALSIPAVCVTYEHLITKPVLGKDEDFKQYINKDSKHEELMLGDPCLKDLKKGDIIQLQRRGFFICDQPYEPVSPYSCREAPCILIYIPDGHTKEMPTSGSKEKTKVEISKKETSSAPKERPAPAVSSTCATAEDSSVLYSRVAVQGDVVRELKAKKAPKEDIDAAVKQLLTLKAEYKEKTGQEYKPGNPSAAAVQTVSTKSSSNTVESTSLYNKVAAQGEVVRKLKAEKAPKAKVTEAVECLLSLKAEYKEKTGKDYVPGQPPASQNSHSNPVSNAQPAGAEKPEAKVLFDRVACQGEVVRKLKAEKASKDQVDSAVQELLQLKAQYKSLTGIEYKPVSATGAEDKDKKKKEKENKSEKQNKPQKQNDGQGKDSSKSQGSGLSSGGAGEGQGPKKQTRLGLEAKKEENLAEWYSQVITKSEMIEYYDVSGCYILRPWSYSIWESIKDFFDAEIKKLGVENCYFPIFVSQAALEKEKNHIEDFAPEVAWVTRSGKTELAEPIAIRPTSETVMYPAYAKWVQSHRDLPVRLNQWCNVVRWEFKHPQPFLRTREFLWQEGHSAFATFEEAADEVLQILELYARVYEELLAIPVVRGRKTEKEKFAGGDYTTTIEAFISASGRAIQGATSHHLGQNFSKMCEIVFEDPKTPGEKQFAYQCSWGLTTRTIGVMVMVHGDNMGLVLPPRVASVQVVVIPCGITNALSEEDREALMAKCNEYRRRLLGANIRVRVDLRDNYSPGWKFNHWELKGVPVRLEVGPRDMKSCQFVAVRRDTGEKLTIAEKEAEAKLEKVLEDIQLNLFTRASEDLKTHMVVSNTLEDFQKVLDAGKVAQIPFCGEIDCEDWIKKMTARDQDVEPGAPSMGAKSLCIPFNPLCELQPGAMCVCGKNPAKFYTLFGRSY | 1 arbitrary units | 
2 | eIF4G (natural protein, mouse (endogenous in forebrain), UniProt Q6NZJ6 1-1600, looked up, eIF4G, mouse, endogenous in forebrain; detected with an antibody against eIF4G1 (Cell Signaling Technology 2498); also called eIF4G1; scaffolding protein of eIF4F; source: endogenous, mouse forebrain lysate (WT or 4Eki)) MNKAPQPTGPPPARSPGLPQPAFPPGQTAPVVFSTPQATQMNTPSQPRQGGFRSLQHFYPSRAQPPSSAASRVQSAAPARPGPAPHVYPAGSQVMMIPSQISYSASQGAYYIPGQGRSTYVVPTQQYPVQPGAPGFYPGASPTEFGTYAGAYYPAQGVQQFPASVAPAPVLMNQPPQIAPKRERKTIRIRDPNQGGKDITEEIMSGARTASTPTPPQTGGSLEPQPNGESPQVAVIIRPDDRSQGAAIGGRPGLPGPEHSPGTESQPSSPSPTPSPPPILEPGSESNLGVLSIPGDTMTTGMIPMSVEESTPISCETGEPYCLSPEPTLAEPILEVEVTLSKPIPESEFSSSPLQVSTALVPHKVETHEPNGVIPSEDLEPEVESSTEPAPPPLSPCASESLVPIAPTAQPEELLNGAPSPPAVDLSPVSEPEEQAKKVSSAALASILSPAPPVAPSDTSPAQEEEMEEDDDDEEGGEAESEKGGEDVPLDSTPVPAQLSQNLEVAAATQVAVSVPKRRRKIKELNKKEAVGDLLDAFKEVDPAVPEVENQPPTGSNPSPESEGSMVPTQPEETEETWDSKEDKIHNAENIQPGEQKYEYKSDQWKPLNLEEKKRYDREFLLGFQFIFASMQKPEGLPHITDVVLDKANKTPLRQLDPSRLPGINCGPDFTPSFANLGRPALSNRGPPRGGPGGELPRGPAGLGPRRSQQGPRKETRKIISSVIMTEDIKLNKAEKAWKPSSKRTAADKDRGEEDADGSKTQDLFRRVRSILNKLTPQMFQQLMKQVTQLAIDTEERLKGVIDLIFEKAISEPNFSVAYANMCRCLMALKVPTTEKPTVTVNFRKLLLNRCQKEFEKDKDDDEVFEKKQKEMDEAATAEERGRLKEELEEARDIARRRSLGNIKFIGELFKLKMLTEAIMHDCVVKLLKNHDEESLECLCRLLTTIGKDLDFAKAKPRMDQYFNQMEKIIKEKKTSSRIRFMLQDVLDLRQSNWVPRRGDQGPKTIDQIHKEAEMEEHREHIKVQQLMAKGSDKRRGGPPGPPINRGLPLVDDGGWNTVPISKGSRPIDTSRLTKITKPGSIDSNNQLFAPGGRLSWGKGSSGGSGAKPSDTASEATRPATLNRFSALQQTLPAENTDNRRVVQRSSLSRERGEKAGDRGDRLERSERGGDRGDRLDRARTPATKRSFSKEVEERSRERPSQPEGLRKAASLTEDRGRDPVKREATLPPVSPPKAALSVDEVEKKSKAIIEEYLHLNDMKEAVQCVQELASPSLLFIFVRLGIESTLERSTIAREHMGRLLHQLLCAGHLSTAQYYQGLYETLELAEDMEIDIPHVWLYLAELITPILQEDGVPMGELFREITKPLRPMGKATSLLLEILGLLCKSMGPKKVGMLWREAGLSWREFLAEGQDVGSFVAEKKVEYTLGEESEAPGQRTLAFEELRRQLEKLLKDGGSNQRVFDWIDANLNEQQIASNTLVRALMTTVCYSAIIFETPLRVDVQVLKVRARLLQKYLCDEQKELQALYALQALVVTLEQPANLLRMFFDALYDEDVVKEDAFYSWESSKDPAEQQGKGVALKSVTAFFNWLREAEDEESDHN | 1 arbitrary units | 0.83 arbitrary units
3 | Gapdh (natural protein, Gapdh, mouse, endogenous in forebrain; also called GAIT complex protein; source: endogenous, mouse forebrain lysate (WT or 4Eki)) not shown |  | 0.775 arbitrary units
